Consider two molecules from paper PMC3046049 (Science (New York, N.Y.), 2010).

First the molecules themselves.
B2: Gαq (natural protein)
chain: RRELKLLLLGTGESGKSTFIKQMRIIHGSGYSDEDKRGFTKLVYQNIFTAMQAMIRAMDTLKIPYKYEHNKAHAQLVREVDVEKVSAFENPYVDAIKSLWNDPGIQECYDRRREYQLSDSTKYYLNDLDRVADPSYLPTQQDVLRVRVPTTGIIEYPFDLQSVIFRMVDVGGQRSERRKWIHCFENVTSIMFLVALSEYDQVLVESDNENRMEESKALFRTIITYPWFQNSSVILFLNKKDLLEEKIMYSHLVDYFPEYDGPQRDAQAAREFILKMFVDLNPDSDKIIYSHFTCATDTENIRFVFAAVKDTILQLNLKEYNLV

The target of experiment [1] is B2.
For experiment [2], the target named is T1, PLC-β3 truncated at residue 886 (UniProt Q01970 1-886).
T1 sequence (looked up): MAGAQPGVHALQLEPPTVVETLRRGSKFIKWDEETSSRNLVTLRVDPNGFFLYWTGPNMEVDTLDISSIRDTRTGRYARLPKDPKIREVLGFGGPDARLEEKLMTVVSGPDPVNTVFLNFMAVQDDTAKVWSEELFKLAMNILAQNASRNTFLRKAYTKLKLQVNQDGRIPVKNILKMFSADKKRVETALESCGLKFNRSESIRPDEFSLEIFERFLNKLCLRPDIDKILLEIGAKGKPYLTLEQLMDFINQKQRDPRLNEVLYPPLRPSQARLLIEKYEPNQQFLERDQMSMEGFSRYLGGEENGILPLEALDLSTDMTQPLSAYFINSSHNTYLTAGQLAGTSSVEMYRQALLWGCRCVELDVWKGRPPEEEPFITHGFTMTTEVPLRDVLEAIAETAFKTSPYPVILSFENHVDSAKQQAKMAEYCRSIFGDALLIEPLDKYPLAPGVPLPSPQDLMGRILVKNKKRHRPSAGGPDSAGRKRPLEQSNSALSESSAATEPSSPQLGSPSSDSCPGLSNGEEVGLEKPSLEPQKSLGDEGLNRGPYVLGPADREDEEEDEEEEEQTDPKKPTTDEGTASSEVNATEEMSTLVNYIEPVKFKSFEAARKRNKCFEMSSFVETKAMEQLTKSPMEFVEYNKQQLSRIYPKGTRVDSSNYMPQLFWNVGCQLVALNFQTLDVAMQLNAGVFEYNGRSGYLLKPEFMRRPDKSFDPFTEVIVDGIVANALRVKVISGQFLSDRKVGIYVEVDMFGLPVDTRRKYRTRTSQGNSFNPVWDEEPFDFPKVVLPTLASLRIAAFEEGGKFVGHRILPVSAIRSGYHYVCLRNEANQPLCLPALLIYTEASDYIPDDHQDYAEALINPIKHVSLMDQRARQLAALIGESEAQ

For orientation: Kd means the concentration at which binding is half-saturated.

B1: PLC-β3(L859A) (enzyme, UniProt Q01970 1-1234, looked up)
chain: MAGAQPGVHALQLEPPTVVETLRRGSKFIKWDEETSSRNLVTLRVDPNGFFLYWTGPNMEVDTLDISSIRDTRTGRYARLPKDPKIREVLGFGGPDARLEEKLMTVVSGPDPVNTVFLNFMAVQDDTAKVWSEELFKLAMNILAQNASRNTFLRKAYTKLKLQVNQDGRIPVKNILKMFSADKKRVETALESCGLKFNRSESIRPDEFSLEIFERFLNKLCLRPDIDKILLEIGAKGKPYLTLEQLMDFINQKQRDPRLNEVLYPPLRPSQARLLIEKYEPNQQFLERDQMSMEGFSRYLGGEENGILPLEALDLSTDMTQPLSAYFINSSHNTYLTAGQLAGTSSVEMYRQALLWGCRCVELDVWKGRPPEEEPFITHGFTMTTEVPLRDVLEAIAETAFKTSPYPVILSFENHVDSAKQQAKMAEYCRSIFGDALLIEPLDKYPLAPGVPLPSPQDLMGRILVKNKKRHRPSAGGPDSAGRKRPLEQSNSALSESSAATEPSSPQLGSPSSDSCPGLSNGEEVGLEKPSLEPQKSLGDEGLNRGPYVLGPADREDEEEDEEEEEQTDPKKPTTDEGTASSEVNATEEMSTLVNYIEPVKFKSFEAARKRNKCFEMSSFVETKAMEQLTKSPMEFVEYNKQQLSRIYPKGTRVDSSNYMPQLFWNVGCQLVALNFQTLDVAMQLNAGVFEYNGRSGYLLKPEFMRRPDKSFDPFTEVIVDGIVANALRVKVISGQFLSDRKVGIYVEVDMFGLPVDTRRKYRTRTSQGNSFNPVWDEEPFDFPKVVLPTLASLRIAAFEEGGKFVGHRILPVSAIRSGYHYVCLRNEANQPLCLPALLIYTEASDYIPDDHQDYAEAAINPIKHVSLMDQRARQLAALIGESEAQAGQETCQDTQSQQLGSQPSSNPTPSPLDASPRRPPGPTTSPASTSLSSPGQRDDLIASILSEVAPTPLDELRGHKALVKLRSRQERDLRELRKKHQRKAVTLTRRLLDGLAQAQAEGRCRLRPGALGGAADVEDTKEGEDEAKRYQEFQNRQVQSLLELREAQVDAEAQRRLEHLRQALQRLREVVLDANTTQFKRLKEMNEREKKELQKILDRKRHNSISEAKMRDKHKKEAELTEINRRHITESVNSIRRLEEAQKQRHDRLVAGQQQVLQQLAEEEPKLLAQLAQECQEQRARLPQEIRRSLLGEMPEGLGDGPLVACASNGHAPGSSGHLSGADSESQEENTQL
B1: the “fold lower binding affinity than PLC-β3” value in experiment [1] stood at 7 fold.
B2 displayed a Kd in experiment [2] of about 200 nM.
